The data set can be described thus: label from the status in PepcDB records.

With “MTIISTIFFFSFSVFFVIRYLKLKKIYDLLMIFVGLYAGLINMKLMSLSTTVSYVLDTIVIVLVIISVILFLKDKKNY”, the protein production result is reported as “failed”.

Regarding “MTIMAGCMLVLPVMDAIAKYMAVSVGMSPAQVTFYRFFFQVLCTLPLLLVVSPGALFSAKRPWMNCLRGVLHASASLMFFAAVKYMPLADVFAIYFVEPFMLTMMSALFLGDRVGWKRWTAIVVGFGGALIVIQPSFEIFGWTSLLPVACAFFYTLYLFLNRAIGDADSPLVMQTMSGIAGTLFMAAALFAGDALGDKDFAVSLPQSAFALVLLVLLGSLSGYMHLLIVRAFRLAPLSLLAPFQYFEIISATILGYALFSDFPTPSKWLGILIIVASGLFIIWRERQQPASTPPLEGQ”, the protein production entry was “failed”.

“MTISSRKAALAAVLLASVAVPAAAEPVFNRIASFPVAENLPGDKDKLSQTSAEIITATDDGNTLIYSDSPLGAIGFIDITDAKAPKSGGALMMDGEPTSVTSSAGKALVAVNTSESKARPSGRLAIVDVATKKIENTCDLGGQPDSIALNKDKTLGTIAIEDERDEDVNDGNIPQMPAGDLVVFRVKNGAVDCGSIKHVTLTDLAGVVPEDPEPEFVAFNGLNEIALTLQENNEIVIIDANTAEVKTHFSAGSVDLTGIDTKRDGALKFTGESKGVLREPDAVKWLDDNRLVVANEGDYHGGSRGFTIFDKTGKLLYESGASFERAVAHIGHYPESRSESKGVEPEGLEAAKFGDDQYFFLLAERASVVGVYKDTGADPELVQLLPSGISPEGGVAIPARNLFATANELDLGKDGGVRSHVMIYERSEGEKAYPQIVSAEKDGNPIGFAALSGLAAVPGKPGMLYAVSDSVLGSQPTIYTIDATKKPAVITDRLVVKRDGAPAQKLDIEGIAAAADGSFWLASEGYSERLVPHALYNVNAKGDIRAEIALPKELTANEIRFGFEGVTIIGTGDDATLWMAVQREWGDDEKGFVKLVSYNPKKKEWGAVRYPLDKTESGWVGLSEISAHGDSVYIIERDNLVGDAAKLKKLYKVAISELKPAKLGGELPVVKKTEAHDFLGELKTATNGYVLDKLEGFTFDASGKPYAVTDNDGVSDSSGETLFFPVELSATN”: the protein production result is recorded as “failed”. Take “MTITSNISVQNDNLVVQGKTILTKIPDNIILTPVTGNGFVSGSFIGATFEQSKSLHVFPIGVLEGLRFMCCFRFKLWWMTQRMGSCGKDIPLETQFMLLESKDEVEGNGDDAPTVYTVFLPLLEGQFRAVLQGNEKNEIEICFESGDKAVETSQGTHLVYVHAGTNPFEVIRQSVKAVERHMQTFHHREKKKLPSFLDWFGWCTWDAFYTDVTAEGVDEGLKSLSEGGTPPKFLIIDDGWQQIENKEKDENCVVQEGAQFATRLVGIKENAKFQKSDQKDTQVSGLKSVVDNAKQRHNVKQVYAWHALAGYWGGVKPAASGMEHYDSALAYPVQSPGVLGNQPDIVMDSLAVHGLGLVNPKKVFNFYNELHSYLASCGIDGVKVDVQNIIETLGAGLGGRVSLTRSYQQALEASIARNFTDNGCISCMCHNTDGLYSAKQTAIVRASDDFYPRDPASHTIHIASVAYNSLFLGEFMQPDWDMFHSLHPTAEYHAAARAVGGCAIYVSDKPGNHNFDLLRKLVLPDGSVLRAKLPGRPTRDCLFADPARDGIRCWLVQGNEEEPDP”: the protein production entry was “failed”. The result for “MTIVGLKKTYLGLIDKKTGKIIAGPEGLTTDGLYMSNPKDLGTASANITNIAAAGTQKFGDNGLVDVVSSKSFPQVAAVWNNLPFDIKAKIKGEVSDKKGGYVQSQDLPQVALIIESELIDRSHSIFYAFGNGHMTETALNIQTDNAAQNRVEDALTYQSLAFEAWNNQGMKTFNSADSGFDKTAMLKEVMGGYAASGLGVLEHHHHHH” reads “failed”.

With “MTIYHFVGIKGSGMSALAQILHDKGFQVQGSDVDKYFFTQKALEEKQIPIMTFSADNIQEGLTIIAGNAFPDTHEEIERALELGLSVIRYHKFLGQLIDGYTSIAITGSHGKTSTTGLLSHVVGAIRPTSYLIGDGTGSGTKDAEYFALEACEYQRHFLAYKPTYAIMTNIDWDHPDYFKSVDDVFNAFETLGKQVKKAVFALGDDAELRKLTLDIPIIYFGFGEENEFQAKNVIKETTGTKFDVYHREEFLSSFEIPAYGDHNVLNALSVIALCDYEGLPVEDVKNELKTFEGVKRRFSITEKGNQVLVDDYAHHPSEIRATVNAARQKYPDKKVVAVFQPHTFTRTRTFLQGFADSLNLADEVYLCDIFGSAREKTGNLTIADLAHKTKGNHIIKEEHTEELLKYPEAVILFMGAGDVQKFQAAYEKVLDHEFLTEADLKKSAIN”, the protein production result is “failed”.

As to “MTIYLHSIQIGVLLFFIFLFISLIPYLIVQYRRYGRINFWRFFVNFSFILYLICAYAMTIFPLPPVSEVAKMTGPKQNLVPFEFVRQFILYSPFNINEPSTWLAALKDSTFIQPFFNLLLTLPFGLYLRYLFKRSFKQTFVLSFLLTLSFELIQRSALFGLYPRPYRLFDVDDLMINTLGSLIGFGIAVTFSRFLPDLDATKAESSRVSLSRRFIAFLVDLVLIFIIGSLFLPIGYYSELIILGLVPLVLKATPGQLLLRIQIKAKNRFRIALRQFLSFGNFALIISAEYFLQRSGTIPQDQLGQNFLLILLFLGLSLLPLLDVLIAFLSKTRKLWYERVSDTEMIAKLKTNEE”, the protein production result is recorded as “failed”. In the case of “MTIYTLSHGSLKLDVSDQGGVIEGFWRDTTPLLRPGKKSGVATDASCFPLVPFANRVSGNRFVWQGREYQLQPNVEWDAHYLHGDGWLGEWQCVSHSDDSLCLVYEHRSGVYHYRVSQAFHLTADTLTVTLSVTNQGAETLPFGTGWHPYFPLSPQTRIQAQASGYWLEREQWLAGEFCEQLPQELDFNQPAPLPRQWVNNGFAGWNGQARIEQPQEGYAIIMETTPPAPCYFIFVSDPAFDKGYAFDFFCLEPMSHAPDDHHRPEGGDLIALAPGESTTSEMSLRVEWL”, the protein production entry is listed as “not failed”. The result for “MTKAPSLAFLCIQSLKIQLLESDNPIPDLYELPSELLDGIVAHLPALALQKFQTNMPFHCLDSYESGDDCCLITGRKRARNDVLGSSWKLLFKLRWPDFVDRVESPADWQQLYWEKHLQNCVDEAAEVALRPTFSGRICSINVSDNILRYICHEEHIMTCQNCVCKELSFHFQTFGPYLRCLRLLNVLCVTETSELLRTSKLRSLVLRWIRSEKHVEPLCKLLIQSRETLTSLELIHCKLSLSSISAICTSLHEKGIHTTGMQRFCIKTSSIEIDPLAAPSAFVSFLMSVRTLHSLHFGDSNLDRYFARMVFSTLLDSSSNLSSLDLSENNISGWLSTFSCKSVVGSLSSGKSLQSLCKLNLRGNELDRYDAENLAHALLHMPGLESLDLSGNPIEDSGIRSLISYFTKNPDSRLADLNLENCELSCCGVIEFLDTLSMLEKPLKFLSVADNALGSEVAEAVVNSFTISIESLNIMGIGLGPLGFLALGRKLEKVSKKLLSINISKNRGGLETARFLSKLIPLAPKLISIDASYNLMPPEALLMLCDSLRTAKGDLKRLDMTGNSCISHEADHSSLLHEFQHNGEPIFVLPSSSVSHVPYDDDP” reads “failed”.

“MTKEKSTVPRLRFPGFTDAWKQRKLGEVADFSIKTNSLSRDKLSSYFYEVQNIHYGDILTKYDAILDVCNKELPSIIGSTISDFADALLSEGDIVFADAAEDSTVGKAIEVRNFKGKNVVSGLHTIVARPKVSYAPYYLGYLINSTAYHNQILPLMQGTKVSSISKANLKSTTVVFPTLPEQEAIGSFFSDLDQLITLHQRKLDDVKELKKALLQKMFPKGNGNDFPELRFPEFTDAWKQRKLGEFMKESKILGSKGDIARKLTVRLWGRGVVSKKEIYSGSSATQYYIRKSGQFIYGKLDFLNQAFGIIPPELDGYESTLDSPAFDLLKGINGQFLLEFVSRKEFYYYQGNIANGSRKAKRIHTETFLGMPISLPTLPEQEAIGSFFSDLDQLITLHQRK”: the protein production entry is “failed”. Regarding “MTKETDDDDNDIPIQEDDEEKNPDQDYQELLDGLLNLSGRQLLMFYWDHELTEAVREGFEVISQKWMKGIDQMWVHWNTSRATVRSESASQFRNSDRGGLGPHRNISSQKSFVQVHEELEELYGRHVSLGEVFMKTHTRADGSFVDAKAEKVAEVYKKACEEKLTEIDDDGPKTSMNSSELSTHRDLNIDDKNEIFLQSAS”, the protein production entry is “failed”.

With “MTKFYKFLISIIILALVCLIFFLAKSNILNLDSLKNLILSSGYFAPLIYIIAFALVPLTFFPDSILAILGGSIFGLGGGFLYTSIGALIGGSISFFISRILGQSFVEKFENDKLKNIQELLKDNGFLMILLLRLIPLFPFDLISYGAGLTKISYKDFALGTLIGTIPGILVFVNLGAQWITFNKTSIYLSVSLLILFIIVSVFLKKIYINKHLAKGN”, the protein production entry was “failed”.

“MTKGESTMQRIAVLSDAETATGYRLAGATVIEASPEDALRTLEQAITDGGYGLIAVDTGLIPDPATATARIMRGRDLPILLPIPSLRDAFSSDTVDAKAYMGKLVRDTIGFDIKLLEHHHHHH”: the protein production entry is “not failed”. “MTKIACVIVTYNRKQLLEEALNSVLIQTESPEYVFVIDNASTDGTEKYINDKFNFDNRQWHYVRCSQNLGGSAGFAQGMRLALQTDCSWISISDDDAIFEPGYFAALRKGIKQYPEQSVFSGSVLLPDGKHDMMHREVITNSATLTVRCVTDETYKHDFSYDIFSFVGILLSRQVIEAIGLPEQDYFIRFDDFEYAVRALKFGRFMNLSAAKVLHKTTYTRSAIAPWKEYYVMRNRIALLIKHRGNNHTVRWYCRRFLLRKLLAILLFSNRRRQARSLVNAYVKGYQDGWHARLGRQLAFLPS”: the protein production result was “failed”. The result for “MTKILAIIGARLNSSRLAGKHLLPLACDAAGNTLPIIGHILRRLKTCSTISSIELATTADEFNQPLINWAQENQLTCVPFEGDVNDLMGRLDRIIQRQQPDYIVYICGDCPLIDPNFIDHALLALKASDKDTITLKEGIISLHEGIGFYTRSGWNRLMAVSDCVMSREHVGYGDKLRPVLTKLYIDDSGNYGKITHRISVDTHADYRFMVEVYRRWYVNNPTETVVSLEWVQEELLKDSALFAINAHVQQKAANKNYAKASIYCHLGPQIGLGHFKRSELIANALQEHLSLGVNIHAYSEAGQRLDSSSKVVWHEDEQALLSALTEDQNPLVLLDFHPNFIDLESFANRLAGLAKHGAKRIGIDKMAPLLDELDWLFIPSFNSPTHHPKISAGWRNYLFSTIPQATKQAQILVLTGGSDALGYGRELPTILDSIGTDWPILWIQGPLAPAPQLTPNSAIVVQQNPDNLKEIIAQSEIILSCYGLSLFESIYGKAATLLLPPQHLCDEAELFALNQERCCLVSDSLEEAKMMLQQLLTEPEQRRSLQNQATRVFESHQGIQALIDDIHHLLGAVN” reads “failed”; that for “MTKKEKGTMMTLAAGLAWGISGISGQYLMSHGVHVNLLTSLRLLITGIFLLSLARSKQKEHLVAAWKQPKFLKQVLLFSIFGLVLNQYAFLRAIHLTNAGTATVLQYMAPILILSIVCILNRQRPTSFEIIAIAMAILGTYMIATHGKLGSLAITPKGLMWGLGSAITYSIYILLPVKLIHEWGSTIVIGSGMFIGGILFSLVTKAWQYPLQINVMSILAYIGIIGIGTIFAYTFFLKGVSIVGAVKGSLLASVEPVSSVFLTVLVLGEIFYPIDLLGMLFIFLAVTLISYKDLIALKKMKRVR”, “failed”. As for “MTKKQKEILFCDYFEEWVEVYKVGAIAKITLAKYYNAAKQLRDLCPKLFISDFDRREYQRIINVYAETHEKQTVKDFHHHVKACIKDLFHDGLIDKDPTYRVVIKGAEPTRAKLEHHHHHH”, the entry is “failed”; as for “MTKKTGFFKRLKALTLPQKQLFATALCQRMLPNYQLFSEVCEFGDPAVLSTALELLWQSLYDPKLKFNIDVHLQRLEDNTPEPADFEAYGVYPAMDAVVAISTLLGAIQGKIEEDIVNISKLSSSTVANYIEAISDVDLVDEALDDFVFAHEVMEEEKELQNSLLEIIEENPKITAELVKGLRKDIIETGVSNIGISVA”, “not failed”.

In the case of “MTKMYINTIIEYIDSNIAYSPIVFFSLLILAGLNVPISEDAIVLMGGILSSRKNEYTILIFLGIFWGAYLGDIISFYIGKLMGNKLFKNKKDNNLLDKINYYYGQYGVLTLFIGRFIPFGVRNAIFMSAGMGNMKSNLFIVSDFFATLLSIVVYFTLSFKLGQSFEIIFSKIKIIIFAIFIAVIATTIIIYVIKKNKKVDKNLK”, the protein production result was “failed”.

The values above are taken from a protein production outcome set (Wang et al. 2014).
